dH, EC50 of FcγRIIIa activation (NFAT-driven luciferase in Jurkat/FcγRIIIa/NFAT-Luc cells with Daudi cells; corresponds to ADCC) and Kd data for 7 substances are collected here from paper PMC5834517.

Assay [1] concerns the target Mut FcγRIIIa (engineered, non-glycosylated Fcγ receptor IIIa) (UniProt P08637). The assay can be described thus: SPR; van't Hoff analysis: temperature dependence of KD; Mut FcγRIIIa on the surface, antibody fractions as analyte. Background: SPR reads the build-up and loss of mass on a sensor chip optically.
The target of assay [2] is WT FcγRIIIa (glycosylated, expressed by HEK293 cells) (UniProt P08637).
Assay [3] concerns the target Mut FcγRIIIa (non-glycosylated). The assay can be described thus: SPR; Biacore T200; FcγRIIIa (WT or Mut) captured on a Ni2+-loaded NTA sensor chip at 350 RU; Rituximab fractions injected as analyte at 30 μL/min; PBS with 0.005% Tween-20; global fit, 1:1 Langmuir model; KD = koff/kon.

In the case of “Rituximab fraction Peak 1 of the FcγRIIIa column (antibody)”, the dH in assay [1] was -13.3 kcal/mol. The EC50 of FcγRIIIa activation (NFAT-driven luciferase in Jurkat/FcγRIIIa/NFAT-Luc cells with Daudi cells; corresponds to ADCC) in assay [2] worked out at 0.2 µg/mL.

The term Kd denotes the constant that tells how readily two partners part at equilibrium. In turn, “Rituximab, peak 3 of the FcγRIIIa-immobilized column (antibody)” returned a Kd in assay [3] of 701 nM. “Rituximab (Roche), before separation (antibody)” yielded an EC50 of FcγRIIIa activation (NFAT-driven luciferase in Jurkat/FcγRIIIa/NFAT-Luc cells with Daudi cells; corresponds to ADCC) in assay [2] of 0.13 µg/mL. “Rituximab, peak 1 of the FcγRIIIa-immobilized column (antibody)” showed a Kd in assay [3] of 1490 nM. On to “Rituximab fraction Peak 3 of the FcγRIIIa column (antibody)”, for which, in assay [1], the dH is -13.1 kcal/mol. Besides, the EC50 of FcγRIIIa activation (NFAT-driven luciferase in Jurkat/FcγRIIIa/NFAT-Luc cells with Daudi cells; corresponds to ADCC) in assay [2] stood at 0.05 µg/mL. On to “Rituximab, peak 2 of the FcγRIIIa-immobilized column (antibody)”, for which the dissociation constant Kd in assay [3] is 1010 nM. Consider “Rituximab fraction Peak 2 of the FcγRIIIa column (antibody)”, for which, in assay [1], the dH was -13.3 kcal/mol. Moreover, the EC50 of FcγRIIIa activation (NFAT-driven luciferase in Jurkat/FcγRIIIa/NFAT-Luc cells with Daudi cells; corresponds to ADCC) in assay [2] was found to be 0.19 µg/mL.
